Results: the supplement of paper PMC10567573

B1: CDS2 (parent)
chain: IHSIALSTFASLIGPFGGFFASGF
B2: CDC25B (parent)
chain: ELKTFRLKTRSWAGERSRRELCSR

Variants of: B1
Assay: protein stability index of a GFP-peptide fusion (GPS, HEK-293T) (PSI 1-6); higher = more stable
Details: c terminus: a fixed tail appended
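Note: lentivirally expressed fusions sorted by FACS into six bins by GFP to DsRed ratio, PSI derived from sequencing read proportions per bin multiplied by bin number.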

Protein stability index of substitutions, site by site:
P15: H 2.17 | G 3.77 | S 2.34 | C 2.62 | F 2.46 | L 4.3
A5: Q 3.47 | N 4.35 | D 2.51 | T 2.36 | H 2.81 | K 3.47 | I 3.04 | S 3.12 | F 3.17
F24: Y 2.52 | C 4.83 | M 2.8 | I 2.91 | W 3.66 | A 2.18
F20: A 1.97 | R 2.86 | S 2.52
A10: H 2.85 | M 3.11 | D 3.54
F9: R 3.28 | E 1.92 | G 2.44
H2: Y 3.65 | K 3.27 | G 3.52 | W 2
A21: S 2.54 | D 4.2 | N 2.8
L6: K 3.48 | Y 3.33 | A 2.63
S22: Q 2.57 | E 2.95 | H 2.03
G14: M 2.48 | K 3.34 | A 3.37 | V 2.64 | D 3.05 | L 3.66 | Q 2.15 | N 1.69
S3: P 2.89 | F 3.44 | E 3.44 | Y 2.06 | G 2.49 | K 3.55
I4: S 3.51 | R 3.04
G23: C 2.54 | T 2.53 | F 2.67
I1: W 3.6 | G 2.84 | D 1.79 | Q 1.48
S11: V 1.89 | G 2.9 | L 2.8 | T 2.57 | E 3.35 | D 2.9 | W 5.33
S7: W 3.82 | I 2.94
F16: W 2.49 | V 2.96 | D 3.08 | I 4.33
I13: K 2.49 | Q 2.45 | P 2.92 | W 3.97
F19: P 2.01 | Q 3.63
T8: Q 1.86 | H 3.82 | A 3.48 | D 2.14 | I 1.82
G18: R 3.42 | L 2.48 | Q 3.3 | W 2.32 | N 2.01
L12: A 2.82 | R 1.6 | W 3.43 | F 4.01 | C 2.74

Variants of: B2
Assay: as above
Details: c terminus: a fixed tail appended

Protein stability index: each site, then its substitutions
S23: E 3.53 | G 3.44 | M 3.26 | I 2.95 | D 4.21 | F 3.03 | R 2.87 | Q 3.39 | P 3.26 | A 3.02 | H 3.13 | K 3.62 | L 3.35 | V 2.25 | T 3.89 | W 2.69 | Y 3.83 | C 3.05 | N 3.8
C22: A 3.36 | Q 3.26 | L 2.79 | G 4.06 | T 3.48 | N 4.04 | Y 2.6 | S 3.25 | E 3.65 | H 3.42 | D 3.27 | K 3.57 | P 3.01 | V 3.54 | I 3.33 | R 4.04 | W 2.89 | M 2.96 | F 3.01
L21: V 3.71 | W 2.55 | M 3.33 | R 3.37 | N 3.35 | S 3.9 | P 3.99 | Y 3.61 | T 3.84 | Q 3.15
R24: V 2.7 | D 2.91 | F 1.85 | N 3.38 | C 2.9 | I 2.86 | S 3.28 | W 2.58 | G 2.59 | E 3.39 | T 2.73 | Y 2.33 | L 3 | P 2.82 | K 3.38 | M 2.34 | Q 3.23 | H 3.3 | A 2.72
